Test results taken from patent publication US20220119534A1 (DRAGONFLY THERAPEUTICS, published 2022).
Positions count from the first letter of the chain named.

B1: AB0191 (other)
chain: EVQLVESGGGVVQPGGSLRLSCAASGFTFNSFGMHWVRQAPGKCLEWVAFISSGSTSIYYANTVKGRFTISRDNSKNTLYLQMNSLRAEDTAVYYCARDGYPTGGAMDYWGQGTSVTVSSGGGGSGGGGSGGGGSGGGGSDIQMTQSPSSLSASVGDRVTITCKASQDIYNYLSWFQQKPGKAPKPLIYRANILVSGVPSRFSGSGSGQDYTFTISSLQPEDIATYYCLQFDAFPFTFGCGTKLEIKGSDKTHTCPPCPAPELLGGPSVFLFPPKPKDTLMISRTPEVTCVVVDVSHEDPEVKFNWYVDGVEVHNAKTKPREEQYNSTYRVVSVLTVLHQDWLNGKEYKCKVSNKALPAPIEKTISKAKGQPREPRVYTLPPCRDELTKNQVSLTCLVKGFYPSDIAVEWESNGQPENNYKTTPPVLVSDGSFTLYSKLTVDKSRWQQGNVFSCSVMHEALHNHYTQKSLSLSPG
heavy: EVQLVESGGGLVKPGGSLRLSCAASGFTFSSYSMNWVRQAPGKGLEWVSSISSSSSYIYYADSVKGRFTISRDNAKNSLYLQMNSLRAEDTAVYYCARGAPIGAAAGWFDPWGQGTLVTVSSASTKGPSVFPLAPSSKSTSGGTAALGCLVKDYFPEPVTVSWNSGALTSGVHTFPAVLQSSGLYSLSSVVTVPSSSLGTQTYICNVNHKPSNTKVDKKVEPKSCDKTHTCPPCPAPELLGGPSVFLFPPKPKDTLMISRTPEVTCVVVDVSHEDPEVKFNWYVDGVEVHNAKTKPREEQYNSTYRVVSVLTVLHQDWLNGKEYKCKVSNKALPAPIEKTISKAKGQPREPQVCTLPPSRDELTENQVSLTCLVKGFYPSDIAVEWESNGQPENNYKTTPPVLDSDGSFFLYSWLTVDKSRWQQGNVFSCSVMHEALHNHYTQKSLSLSPG
light: DIQMTQSPSSVSASVGDRVTITCRASQGISSWLAWYQQKPGKAPKLLIYAASSLQSGVPSRFSGSGSGTDFTLTISSLQPEDFATYYCQQGVSFPRTFGGGTKVEIKRTVAAPSVFIFPPSDEQLKSGTASVVCLLNNFYPREAKVQWKVDNALQSGNSQESVTEQDSKDSTYSLSSTLTLSKADYEKHKVYACEVTHQGLSSPVTKSFNRGEC
notes: As AB0185
B2: AB0185 (other)
chain: DIQMTQSPSSLSASVGDRVTITCKASQDIYNYLSWFQQKPGKAPKPLIYRANILVSGVPSRFSGSGSGQDYTFTISSLQPEDIATYYCLQFDAFPFTFGCGTKLEIKGGGGSGGGGSGGGGSGGGGSEVQLVESGGGVVQPGGSLRLSCAASGFTFNSFGMHWVRQAPGKCLEWVAFISSGSTSIYYANTVKGRFTISRDNSKNTLYLQMNSLRAEDTAVYYCARDGYPTGGAMDYWGQGTSVTVSSGSDKTHTCPPCPAPELLGGPSVFLFPPKPKDTLMISRTPEVTCVVVDVSHEDPEVKFNWYVDGVEVHNAKTKPREEQYNSTYRVVSVLTVLHQDWLNGKEYKCKVSNKALPAPIEKTISKAKGQPREPRVYTLPPCRDELTKNQVSLTCLVKGFYPSDIAVEWESNGQPENNYKTTPPVLVSDGSFTLYSKLTVDKSRWQQGNVFSCSVMHEALHNHYTQKSLSLSPG
heavy: B1 heavy
light: B1 light
notes: Humanized 9F11.B7 F3' TriNKET; scFv-Fc chain built from the general F3' description
B3: AB0186 (other)
chain: B2 chain with S158A
heavy: B1 heavy
light: B1 light
notes: As AB0185
B4: AB0195 (other)
chain: B1 chain with S31A, Q143K, F213L
heavy: B1 heavy
light: B1 light
notes: As AB0185
B5: AB0189 (other)
chain: B2 chain with Q3K, F73L, S158A
heavy: B1 heavy
light: B1 light
notes: As AB0185
B6: F3'-1292 (other)
chain: QLQLQESGPGLVKPSETLSLTCTVSGFSLTNYGLHWIRQPPGKCLEWIGVIWSGGKTDYNPSLKSRVTISKDTSKNQFSLKLSSVQANDTAVYYCAKYDYDDSLDYWGQGTLVTVSSGGGGSGGGGSGGGGSGGGGSDIQMTQSPSSLSASVGDRVTITCHASQNINFWLSWYQQKPGKIPKLLIYEASNLHTGVPSRFSGSGSGTRFTLTISSLQPEDIATYYCQQSHSYPLTFGCGTKLEIKGSDKTHTCPPCPAPELLGGPSVFLFPPKPKDTLMISRTPEVTCVVVDVSHEDPEVKFNWYVDGVEVHNAKTKPREEQYNSTYRVVSVLTVLHQDWLNGKEYKCKVSNKALPAPIEKTISKAKGQPREPRVYTLPPCRDELTKNQVSLTCLVKGFYPSDIAVEWESNGQPENNYKTTPPVLVSDGSFTLYSKLTVDKSRWQQGNVFSCSVMHEALHNHYTQKSLSLSPG
heavy: B1 heavy
light: B1 light
notes: F3' TriNKET, scFv-Fc chain built from the general F3' description; semi-purified
B7: F3'-1306 (other)
chain: DIQMTQSPSSLSASVGDRVTITCHASQNINFWLSWYQQKPGKAPKLLIYEASNLHTGVPSRFSGSGSGTRFTLTISSLQPEDIATYYCQQSHSYPLTFGCGTKLEIKGGGGSGGGGSGGGGSGGGGSQLQLQESGPGLVKPSETLSLTCTVSGFSLTNYGLHWIRQPPGKCLEWIGVIWSGGKTDYNPSLKSRVTISKDTSKNQFSLKLSSVQANDTAVYYCAKYDYDDSLDYWGQGTLVTVSSGSDKTHTCPPCPAPELLGGPSVFLFPPKPKDTLMISRTPEVTCVVVDVSHEDPEVKFNWYVDGVEVHNAKTKPREEQYNSTYRVVSVLTVLHQDWLNGKEYKCKVSNKALPAPIEKTISKAKGQPREPRVYTLPPCRDELTKNQVSLTCLVKGFYPSDIAVEWESNGQPENNYKTTPPVLVSDGSFTLYSKLTVDKSRWQQGNVFSCSVMHEALHNHYTQKSLSLSPG
heavy: B1 heavy
light: B1 light
notes: As F3'-1292
B8: F3'-1297 (other)
chain: B6 chain with I180A
heavy: B1 heavy
light: B1 light
notes: As F3'-1292
B9: F3'-1296 (other)
chain: B6 chain with K97R
heavy: B1 heavy
light: B1 light
notes: As F3'-1292
B10: AB0037 mAb (Humanized 1602 anti-CLEC12A mAb) (antibody, V domains shown)
VH: QLQLQESGPGLVKPSETLSLTCTVSGFSLTNYGLHWIRQPPGKGLEWIGVIWSGGKTDYNPSLKSRVTISKDTSKNQFSLKLSSVQAADTAVYYCAKYDYDDSLDYWGQGTLVTVSS
VL: DIQMTQSPSSLSASVGDRVTITCHASQNINFWLSWYQQKPGKAPKLLIYEASNLHTGVPSRFSGSGSGTRFTLTISSLQPEDIATYYCQQSHSYPLTFGGGTKLEIK

The binders below were run against T1, human CLEC12A expressed on cells (human, UniProt Q5QGZ9 1-265) (assay: flow cytometry, hCLEC12A+ Ba/F3).
T1 construct: Transduced isogenic cells or endogenous expression on AML cells; also called RMA-hCLEC12A; Ba/F3-hCLEC12A
T1 sequence: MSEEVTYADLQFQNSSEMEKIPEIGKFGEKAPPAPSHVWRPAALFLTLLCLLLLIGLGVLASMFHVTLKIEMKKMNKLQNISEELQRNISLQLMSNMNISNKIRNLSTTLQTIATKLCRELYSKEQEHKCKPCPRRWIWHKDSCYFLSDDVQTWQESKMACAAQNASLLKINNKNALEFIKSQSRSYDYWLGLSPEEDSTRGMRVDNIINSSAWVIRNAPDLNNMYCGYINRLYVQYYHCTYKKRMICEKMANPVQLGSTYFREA

Q: What does the source list for B1?
A: EC50: 0.6 nM; Max binding MFI: 7940 MFI

Q: Which results are given for B2?
A: EC50: 0.7 nM; Max binding MFI: 8020 MFI

Q: With B3 as the binder, how does the EC50 read?
A: 0.7 nM

Q: What about the “Max binding MFI” value of the same binder?
A: 8160 MFI

Q: What does the source list for B4?
A: EC50: 0.6 nM; Max binding MFI: 10800 MFI

Q: B5 was tested. Which EC50 did it give?
A: 1.3 nM

Q: What about the “Max binding MFI” value of the same binder?
A: 8760 MFI

The binders below were run against T2, recombinant human CLEC12A-His (human, UniProt Q5QGZ9 65-265) (assay: SPR screening, semi-purified).
T2 construct: also called hCLEC12A-His; hCLEC12A
T2 sequence: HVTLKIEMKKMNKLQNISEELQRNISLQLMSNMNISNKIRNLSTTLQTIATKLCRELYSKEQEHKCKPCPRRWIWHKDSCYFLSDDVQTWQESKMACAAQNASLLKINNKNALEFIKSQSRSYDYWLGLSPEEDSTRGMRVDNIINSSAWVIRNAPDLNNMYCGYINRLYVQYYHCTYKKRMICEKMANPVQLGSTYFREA

Q: With B1 as the binder, how does the Kd read?
A: 1.73 nM

Q: And the koff?
A: 0.00126 s⁻¹

Q: And the kon?
A: 728000 M⁻¹ s⁻¹

Q: What does the source list for B2?
A: Kd: 1.4 nM; koff: 0.00101 s⁻¹; kon: 726000 M⁻¹ s⁻¹

Q: With B3 as the binder, how does the Kd read?
A: 1.04 nM

Q: And the koff?
A: 0.00117 s⁻¹

Q: And the kon?
A: 1.12e+06 M⁻¹ s⁻¹

Q: Which results are given for B4?
A: Kd: 1.68 nM; koff: 0.00129 s⁻¹; kon: 766000 M⁻¹ s⁻¹

Q: Which Kd does the source give for B5 here?
A: 1.21 nM

Q: What about the koff of the same binder?
A: 0.00127 s⁻¹

Q: What about the kon of the same binder?
A: 1.04e+06 M⁻¹ s⁻¹

Target: T2, recombinant human CLEC12A-His
Assay: SPR screening, semi-purified
Remark: another data set of the same source
Method: Binding affinities of the 18 semi-purified TriNKETs for hCLEC12A were assessed by SPR in screening.

Q: What does the source list for B6?
A: Kd: 3.22 nM; koff: 0.0013 s⁻¹; kon: 402000 M⁻¹ s⁻¹

Q: Which results are given for B7?
A: Kd: 5.16 nM; koff: 0.0489 s⁻¹; kon: 9.48e+06 M⁻¹ s⁻¹

Q: Which results are given for B8?
A: Kd: 2.79 nM; koff: 0.00141 s⁻¹; kon: 504000 M⁻¹ s⁻¹

Q: Which results are given for B9?
A: Kd: 1.34 nM; koff: 0.00117 s⁻¹; kon: 874000 M⁻¹ s⁻¹

What follows are binders tested against T1, human CLEC12A expressed on cells (assay: flow cytometry, HL60).

Q: Which EC50 does the source give for B1 here?
A: 0.6 nM

Q: And the “Max binding MFI” value?
A: 420 MFI

Q: For B2, which EC50 is on record?
A: 0.4 nM

Q: And the “Max binding MFI” value?
A: 372 MFI

Q: What does the source list for B3?
A: EC50: 0.5 nM; Max binding MFI: 412 MFI

Q: What does the source list for B4?
A: EC50: 0.7 nM; Max binding MFI: 551 MFI

Q: Which EC50 does the source give for B5 here?
A: 0.7 nM

Q: And the “Max binding MFI” value?
A: 420 MFI

The binders below were run against T3, Human CLEC12A expressed on cells (Ba/F3-hCLEC12A, PL21, HL60) (human, UniProt Q5QGZ9 1-265) (assay: cell-based or functional assay).
T3 sequence: T1 sequence

Q: Which results are given for B10?
A: % Max, ADCP activity of M0 macrophages against PL21 cells: 11%; EC50, ADCP activity of M0 macrophages against PL21 cells: 0.05 nM
